Test results: the supplement of paper PMC10567573

B1: MIA2 (parent)
chain: DMVSNIELPTRIHEEVYFEPSSSK

Variants of: B1
Assay: protein stability index of a GFP-peptide fusion (GPS, HEK-293T) (PSI 1-6); higher = more stable
Details: c terminus: a fixed tail appended
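Note: lentivirally expressed fusions sorted by FACS into six bins by GFP to DsRed ratio, PSI derived from sequencing read proportions per bin multiplied by bin number.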

Protein stability index: each site, then its substitutions
S23: E 5.16 | Q 4.41 | H 3.96 | T 3.92 | F 3.11 | I 3.89 | N 3.98 | D 4.84 | R 3.56 | V 3.82 | M 3.29 | L 3.49 | K 3.65
P20: T 3.62 | M 1.88 | R 4.18 | E 4.28 | W 2.63 | Q 4.02 | V 2.56 | G 4.16 | N 4.12 | L 2.72 | Y 2.99 | K 3.84 | S 3.52
S21: V 3.94 | G 4.47 | F 3.56 | Q 3.9 | Y 3.05 | C 3.71 | M 3.4 | P 4.3 | D 4.56 | A 3.71 | E 4.64 | L 3.34 | N 4.19 | T 3.75 | K 3.46 | H 3.97
S4: W 2.6 | Q 3.52 | I 1.93 | F 2.35 | E 4.48 | T 3.73 | G 3.82 | D 3.98 | H 4.29 | K 4.07 | Y 4.01 | N 4.03 | C 3.44 | R 3.97 | V 3.33
N5: I 3.86 | H 4.3 | W 4.38 | E 4.18 | Q 4.33 | P 5.11 | D 4.56 | G 3.84 | S 4.46 | V 3.5 | M 3.99 | K 4.43
T10: H 4.47 | V 3.65 | P 4 | E 4.01 | M 3.81 | F 3.86 | Y 3.83 | I 3.94 | C 1.67 | G 3.83 | A 4.23 | N 3.61
F18: I 4.52 | V 3.8 | A 4.12 | P 4.23 | K 3.51 | N 4.68 | C 3.59 | H 4.64 | Q 5.12 | D 5.29 | R 4.28 | Y 4.76 | L 4.5 | G 4.63 | T 4.63
M2: R 4.18 | N 5.1 | L 3.7 | Y 3.72 | E 5.23 | W 2.8 | D 5.43 | K 3.55 | T 5.12 | S 5.02 | H 4.48 | A 5.19 | G 4.78 | I 3.62
R11: Y 3.26 | A 4.7 | I 3.58 | T 4.27 | N 4.39 | G 4.86 | C 3.62 | M 4.16 | P 4.09 | L 3.94 | W 3.52 | Q 4.42 | H 3.43
E7: T 2.78 | C 3.32 | M 3.29 | A 3.65 | D 3.83 | H 3.98 | N 2.85 | S 3.02 | W 2.64 | Q 2.9 | V 3.53 | F 3.59 | L 3.16 | K 3.03
H13: C 3.37 | D 3.59 | Q 3.84 | W 3.15 | M 3.02 | N 4.19 | I 3.42 | T 3.02 | Y 3.57 | L 3.99 | E 4.44 | S 3.33 | V 3.62 | A 4
V3: C 3.97 | M 4.09 | H 3.56 | Y 3.87 | I 4.26 | S 4.26 | P 4.1 | D 3.89 | W 3.15 | G 4.23 | A 3.79 | F 3.73 | L 3.53 | R 4.56 | Q 4.02 | T 3.04
E14: Y 1.86 | P 3.16 | H 3.28 | A 3.51 | G 3.28 | T 3.07 | W 2.88 | R 2.98 | S 3.29 | C 1.91 | M 2.58
Y17: T 4.28 | P 4.97 | N 4.32 | R 5.01 | V 4.3 | S 4.06 | Q 4.26 | M 3.73 | A 3.67 | K 4.27 | W 4.21 | L 4.29 | I 3.94 | C 4.52 | E 4.95 | F 4.35
E19: F 2.86 | N 3.41 | G 3.09 | L 3.63 | I 2.64 | P 3.52 | C 2.96 | W 2.72 | V 3.15 | T 3.4 | Y 2.87 | M 3.31 | S 3.82 | D 3.38 | H 3.14
V16: K 3.89 | A 4.26 | F 3.87 | P 4.12 | H 3.55 | S 4.02 | R 3.17 | W 3.73 | G 4.16 | D 4.77 | Y 3.49 | Q 4.02
I12: F 3.57 | W 3.59 | H 3.42 | T 3.98 | G 4.39 | A 4.18 | K 3.64 | Y 3.87 | N 3.69 | P 3.86 | L 3.89 | M 3.6 | S 4.51 | Q 4.11 | V 4.25 | E 4.33 | R 3.06
I6: S 4.07 | V 4.18 | R 3.84 | L 4.16 | P 4.4 | H 4.34 | D 4.86 | G 4.52 | K 4.68 | Y 4.03 | F 4.08 | E 5.27 | A 4.51 | Q 4.19 | C 4.91
E15: H 3.63 | W 2.75 | N 3.29 | Q 3.44 | P 2.96 | C 2.97 | D 4.45 | V 2.6 | T 3.9 | S 3.54 | I 2.28 | A 3.35 | L 3.27 | K 3.52
S22: K 3.9 | P 4.02 | R 3.73 | I 3.13 | A 4.28 | E 4.13 | N 4.12 | V 3.95 | M 3.81 | D 4.25 | Y 3.08 | C 3.89
L8: H 4.56 | P 4.4 | V 4.13 | Y 3.52 | G 4.74 | A 4.46 | N 4.44 | E 5.22 | S 4.5 | R 3.64 | Q 4.53 | F 4.47 | D 4.54
D1: A 3.62 | S 3.5 | Q 3.95 | P 4.09 | M 2.73 | R 4.25 | Y 3.42 | N 4.15 | E 3.16 | V 1.98 | T 3.63 | I 2.36 | L 3.11 | K 3.93 | H 4.67
K24: R 3.85 | C 3.66 | G 4.55 | P 4.08 | V 3.51 | W 2.52 | N 4.17 | M 3.57 | I 2.98 | A 3.64 | H 3.56 | F 3.28 | Y 3.32 | Q 4.89
P9: E 4.21 | W 2.98 | R 3.6 | N 4.06 | S 3.31 | V 2.94 | Y 3.41 | A 3.46 | K 3.89 | L 3.65 | T 3.69 | G 3.53 | D 3.46
